Measured values reported in US20240279618A1, “RECEPTOR TYROSINE KINASE AGONIST, COMPOSITION FOR CELL CULTURE MEDIUM, AND […] MAINTENANCE COMPOSITION” (SEKISUI CHEMICAL CO., LTD., priority 2021, published 2024).

Tests used:
[1] = tested on: human bone marrow-derived MSC; assay: MSC: evaluation of bone differentiation induction (Alizarin Red); type: cell-based; details: MSC after 3 passages with 20 ng/ml additive, 14 days induction
Procedure: A third passage was performed in a CellBIND® 24-well transparent multi-well plate, and then at a time of reaching 80% to 90% confluence, medium exchange was performed in MesenCult Stem Cell Osteogenic Differentiation Medium (PromoCell, C/N: C-28013) which is a medium for differentiation induction. Furthermore, for the cells as a negative control, D-MEM (10% FBS or 20% FBS) which is a culture medium was used for the medium exchange. The medium exchange was carried out every 2 to 4 days.
After 14 days from seeding, a 4% paraformaldehyde/phosphate buffer solution was added thereto at 500 μL/well, and the cells were left to stand for 2 hours or longer. After the immobilization, purified water was added thereto at 500 μL/well. 500 μL of an Alizarin Red solution (PG Research Co., Ltd., ARD-SET) was added to each well, which was left to stand at room temperature for 30 minutes. The Alizarin Red solution was removed, and washing was performed three times or more with purified water until the washing water became transparent. The water was completely removed, and the coating film was dried, and observed with a microscope to acquire an image. 500 μL of a calcifide nodule dissolution solution (PG Research Co., Ltd., ARD-SET) was added into the well and distributed for 10 minutes to elute the dye. 100 μL of the eluate was transferred to a 96-well plate and the absorbance at 450 nm was measured. […]

[2] = tested on: human bone marrow-derived MSC; assay: MSC culture: evaluation of cell growth and morphology; type: cell-based; parameters: key to P3 Growth rate / P4 Growth rate / P5 Growth rate: cells per well at passage divided by cells at seeding; details: for P2 Count (3-well) / P2 Growth rate / P3 Count (3-well) / P3 Growth rate / P4 Count (3-well) / P4 Growth rate / P5 Count (3-well) / P5 Growth rate / cumulative number of cells (average value), P1 / cumulative number of cells (average value), P2 / cumulative number of cells (average value), P3 / cumulative number of cells (average value), P4 / cumulative number of cells (average value), P5 / P1 Count (2-well): MSC, 20 ng/mL; for cumulative number of cells (average value), P1: culture day 5; for cumulative number of cells (average value), P2: culture day 10; for cumulative number of cells (average value), P3: culture day 15; for cumulative number of cells (average value), P4: culture day 20; for cumulative number of cells (average value), P5: culture day 25; for growth performance of MSC (cumulative number of cells): regardless of the FBS concentration (10% or 20%); for morphology of MSC: 4 passages, Day 1
Procedure: 10 mL of a used portion of D-MEM medium (Low Glucose, Glutamine) (Fujifilm Wako Pure Chemical Corporation, C/N: 041-29775) was added to a 15 mL PP tube, and warmed in a thermostatic water tank (set at 37° C.). A human bone marrow-derived MSC (Stemcell Technologies, C/N: 70022) stock tube preserved in a liquid nitrogen gas phase was taken out from a liquid nitrogen container and thawed in a thermostatic water tank (set at 37° C.). Thereafter, the cells were rapidly moved with a pipette into the tube (including 10 mL of the medium) that had been heated to 37° C. in a clean bench, and mixed by pipetting. The tube was centrifuged (300× g, 5 minutes) and the supernatant was removed with an aspirator.
An appropriate amount of D-MEM that had been warmed to room temperature was added to a cell pellet and mixed, and then the number of cells was evaluated with a cell counter. An appropriate amount of the cell suspension was taken into a 15 mL PP tube and centrifuged (300× g, 5 minutes). The supernatant was removed, an appropriate amount of D-MEM (containing 10% or 20% of FBS (Thermo Fisher Scientific Inc., 16140071); the stock was preserved under refrigeration and used within 2 weeks) was added to a cell pellet to adjust a cell suspension (1).
The number of cells was evaluated again with a cell counter and the cells were appropriately diluted with each of the media. Next, a stock of basic FGF or VHH was added to the cell suspension (1), so that each of the final concentrations was 1 ng/ml or ng/mL. Seeding was performed onto a CellBIND 6-well plate (Coming, C/N: 3335) at a density of 3-5×10^4/well, and after 2 to 4 days, medium exchange was performed using D-MEM (containing 10% FBS or 20% FBS).
The cells were observed under a microscope, and basically, passage was carried out after 5 days from seeding. In advance, the used D-MEM (0% FBS, 10% FBS, or 20% FBS) was warmed in advance in a thermostatic water tank (set at 37° C.). After washing the cells with D-PBS, 500 μL of TrypLE Express was added thereto and the cells were left to stand in a CO2 incubator. After 5 to 10 minutes, the culture container was removed from the CO2 incubator, and a change in cell morphology was confirmed under a microscope. Thereafter, 1 mL of D-MEM was added to each well, and the cells were released by pipetting, suspended, and then recovered in a 15 mL PP tube.
The tube was centrifuged (300× g, 5 minutes) and the supernatant was removed with an aspirator. An appropriate amount of a D-MEM medium (containing 10% FBS or 20% FBS) was added to the cell pellet, and mixed by pipetting. A part of the cell suspension was collected and the number of cells was evaluated with a cell counter. After counting the […] in each well, the cell suspensions in the same group were collected in one tube and mixed together. The average value of individual wells was used to calculate the number of cells at the time of passage.
The cell suspension was appropriately diluted with D-MEM (10% FBS or 20% FBS). The cells were seeded on a new CellBIND 6-well plate at […] cells/well. Furthermore, one well was adjusted to 2 mL/well. After 2 to 4 days, medium exchange was performed with a medium at room temperature.
The average value of the counts of number of cells per well acquired during the passage was used to create a cell growth straight line. In addition, a value obtained by dividing the number of cells per well at the time of passage by the number of cells at the time of seeding was defined as a growth rate during that period, and the rate was used at the time of calculating a cumulative number of cells. In a case in which the number of cells per well at the time of initial seeding is defined as P(0) and the time of the N^th passage is defined as P(N), the cumulative number of cells at each passage is determined by the following calculation equation. […]

[3] = FBS 10%, cells at passage divided by cells at seeding
[4] = FBS 10%, number of cells (average value) at passage P1

Molecule | bone differentiation (Alizarin Red) [1] | P2 Count (3-well) ([2]; FBS 10%) | P2 Growth rate [2, 3] | P3 Count (3-well) ([2]; FBS 10%) | P3 Growth rate ([2]; FBS 10%) | P4 Count (3-well) ([2]; FBS 10%) | P4 Growth rate ([2]; FBS 10%) | P5 Count (3-well) ([2]; FBS 10%) | P5 Growth rate ([2]; FBS 10%) | cumulative number of cells (average value), P1 ([2]; FBS 10%) | cumulative number of cells (average value), P2 ([2]; FBS 10%) | cumulative number of cells (average value), P3 ([2]; FBS 10%) | cumulative number of cells (average value), P4 ([2]; FBS 10%) | cumulative number of cells (average value), P5 ([2]; FBS 10%) | P1 Count (2-well) [2, 4] | P1 Count (2-well) ([2]; FBS 20%, P1) | P2 Count (3-well) ([2]; FBS 20%) | P2 Growth rate ([2]; FBS 20%) | P3 Count (3-well) ([2]; FBS 20%) | P3 Growth rate ([2]; FBS 20%) | also measured
FGF2: fibroblast growth factor (basic), human, recombinant (154aa), positive control; SEQ ID NO: 58 [reference compound] | Differentiation was similarly recognized | 3.6E+05 | 7.2 | 3.5E+05 | 7.0 | 3.0E+05 | 6.0 | 2.0E+05 | 3.9 | 6.8E+05 | 4.9E+06 | 3.4E+07 | 2.1E+08 | 8.1E+08 | 6.8E+05 | 1.2E+06 | 5.3E+05 | 10.7 | 6.6E+05 | 13.2 | P4 Count (3-well) ([2]; FBS 20%): 5.5E+05; P4 Growth rate ([2]; FBS 20%): 10.9; P5 Count (3-well) ([2]; FBS 20%): 3.6E+05; P5 Growth rate ([2]; FBS 20%): 7.2; cumulative number of cells (average value), P1 ([2]; FBS 20%): 1.2E+06; cumulative number of cells (average value), P2 ([2]; FBS 20%): 1.3E+07; cumulative number of cells (average value), P3 ([2]; FBS 20%): 1.7E+08; cumulative number of cells (average value), P4 ([2]; FBS 20%): 1.8E+09; cumulative number of cells (average value), P5 ([2]; FBS 20%): 1.3E+10; growth performance of MSC (cumulative number of cells) [2]: almost the same growth performance
#1-L4-#1: dimer of VHH #1 with linker L4 (GSEGKSSGSGSESKST), SEQ ID NO: 23 (protein, #1-L4-#1) VHH: QLQLVESGGGSVQAGGSLRLSCAASRSLSRFNVWTWYRQAPVKQRELVASITKSGDTNYAESVKGRFIISRDDDKNTVYLQMNNLKSEDTGIYYCAGSYYSGSYLYPSPGGFSVWGQGTQVTVSSGSEGKSSGSGSESKSTQLQLVESGGGSVQAGGSLRLSCAASRSLSRFNVWTWYRQAPVKQRELVASITKSGDTNYAESVKGRFIISRDDDKNTVYLQMNNLKSEDTGIYYCAGSYYSGSYLYPSPGGFSVWGQGTQVTVSS | Differentiation was similarly recognized | 4.3E+05 | 8.5 | 3.7E+05 | 7.5 | 2.9E+05 | 5.8 | 2.2E+05 | 4.3 | 6.3E+05 | 5.4E+06 | 4.0E+07 | 2.3E+08 | 1.0E+09 | 6.3E+05 | 1.3E+06 | 8.4E+05 | 16.7 | 6.9E+05 | 13.7 | morphology of MSC ([2]; 10% FBS, low concentration (1 ng/mL)): flattened morphology; morphology of MSC ([2]; 20% FBS): same morphology was exhibited regardless of the addition concentration; P4 Count (3-well) ([2]; FBS 20%): 4.9E+05; P4 Growth rate ([2]; FBS 20%): 9.7; P5 Count (3-well) ([2]; FBS 20%): 4.3E+05; P5 Growth rate ([2]; FBS 20%): 8.7; cumulative number of cells (average value), P1 ([2]; FBS 20%): 1.3E+06; cumulative number of cells (average value), P2 ([2]; FBS 20%): 2.1E+07; cumulative number of cells (average value), P3 ([2]; FBS 20%): 2.9E+08; cumulative number of cells (average value), P4 ([2]; FBS 20%): 2.8E+09; cumulative number of cells (average value), P5 ([2]; FBS 20%): 2.4E+10; growth performance of MSC (cumulative number of cells) [2]: almost the same growth performance
